Literature values as cited in paper PMC3708895.

Target: T4 capsid (gp23) (Escherichia virus T4) (UniProt P04535)
Chain of UniProt P04535 (P04535 66-521): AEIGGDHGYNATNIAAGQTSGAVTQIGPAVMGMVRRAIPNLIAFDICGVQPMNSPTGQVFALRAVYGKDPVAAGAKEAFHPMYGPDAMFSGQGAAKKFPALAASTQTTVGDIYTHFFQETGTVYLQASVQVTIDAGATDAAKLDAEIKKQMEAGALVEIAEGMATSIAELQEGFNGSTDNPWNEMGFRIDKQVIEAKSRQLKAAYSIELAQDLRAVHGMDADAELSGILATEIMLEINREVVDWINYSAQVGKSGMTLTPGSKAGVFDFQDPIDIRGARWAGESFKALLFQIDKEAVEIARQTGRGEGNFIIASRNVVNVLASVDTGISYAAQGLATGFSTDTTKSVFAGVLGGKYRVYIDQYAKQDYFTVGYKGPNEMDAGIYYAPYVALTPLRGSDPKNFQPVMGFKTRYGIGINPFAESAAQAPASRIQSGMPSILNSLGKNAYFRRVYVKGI

Soc (from UniProt P03715)
Kd: 75 nM
